Each block holds one binder with its values, some of them ahead of it.
Key:
Assay in all cases: cell-based or functional assay
[1] = target: Chymotrypsin, from human pancreas (human, UniProt P17538 19-263)
[2] = target: T1, Elastase from human neutrophils (human, UniProt P08246 30-247, limits assumed)
T1 sequence (looked up): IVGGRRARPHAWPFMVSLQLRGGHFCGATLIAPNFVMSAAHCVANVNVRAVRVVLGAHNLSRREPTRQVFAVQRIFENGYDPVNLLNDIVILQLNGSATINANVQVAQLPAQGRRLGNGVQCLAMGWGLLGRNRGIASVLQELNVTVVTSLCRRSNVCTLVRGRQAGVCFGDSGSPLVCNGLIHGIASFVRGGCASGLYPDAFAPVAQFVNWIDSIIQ

[3] = target: Coagulation Factor Xa, from human plasma (human, UniProt P00742 41-488, limits assumed)
[4] = target: Urokinase from human urine (human, UniProt P00749 21-431, limits assumed)
[5] = target: T2, CathepsinG, from human neutrophils (human, UniProt P08311 21-244)
T2 sequence (looked up): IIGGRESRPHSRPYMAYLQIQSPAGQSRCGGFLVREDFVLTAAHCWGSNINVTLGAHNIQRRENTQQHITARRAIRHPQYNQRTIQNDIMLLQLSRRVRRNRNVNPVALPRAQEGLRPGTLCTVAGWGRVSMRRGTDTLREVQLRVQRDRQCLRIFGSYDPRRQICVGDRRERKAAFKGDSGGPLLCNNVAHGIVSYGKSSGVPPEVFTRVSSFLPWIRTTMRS

[6] = target: Thrombin, from Human Plasma, high activity (human, UniProt P00734 328-622)
[7] = target: Trypsin, Iodination grade, from human pancreas (human, UniProt P07477 24-247)
[8] = target: Tryptase, from human lung (human, UniProt Q15661 31-275, limits assumed)
Chymase, from human skin = target: T3, Chymase, from human skin (human, UniProt P23946 22-247)
T3 sequence (looked up): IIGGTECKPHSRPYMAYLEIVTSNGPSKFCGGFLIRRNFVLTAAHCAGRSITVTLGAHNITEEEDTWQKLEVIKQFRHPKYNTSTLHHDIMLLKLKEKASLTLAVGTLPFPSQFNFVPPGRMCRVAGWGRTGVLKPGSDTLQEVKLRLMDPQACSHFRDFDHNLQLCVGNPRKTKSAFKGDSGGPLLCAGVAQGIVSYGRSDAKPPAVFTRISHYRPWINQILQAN

Tryptase, from human lung, sequence (Q15661 31-275 limits assumed): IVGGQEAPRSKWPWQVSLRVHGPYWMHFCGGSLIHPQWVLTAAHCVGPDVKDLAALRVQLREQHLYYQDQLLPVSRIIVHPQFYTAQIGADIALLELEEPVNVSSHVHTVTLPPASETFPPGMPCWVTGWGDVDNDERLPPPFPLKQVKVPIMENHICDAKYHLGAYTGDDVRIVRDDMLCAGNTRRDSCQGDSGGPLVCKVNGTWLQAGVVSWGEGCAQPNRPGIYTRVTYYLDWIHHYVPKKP
Coagulation Factor Xa, from human plasma, sequence (P00742 41-488 limits assumed): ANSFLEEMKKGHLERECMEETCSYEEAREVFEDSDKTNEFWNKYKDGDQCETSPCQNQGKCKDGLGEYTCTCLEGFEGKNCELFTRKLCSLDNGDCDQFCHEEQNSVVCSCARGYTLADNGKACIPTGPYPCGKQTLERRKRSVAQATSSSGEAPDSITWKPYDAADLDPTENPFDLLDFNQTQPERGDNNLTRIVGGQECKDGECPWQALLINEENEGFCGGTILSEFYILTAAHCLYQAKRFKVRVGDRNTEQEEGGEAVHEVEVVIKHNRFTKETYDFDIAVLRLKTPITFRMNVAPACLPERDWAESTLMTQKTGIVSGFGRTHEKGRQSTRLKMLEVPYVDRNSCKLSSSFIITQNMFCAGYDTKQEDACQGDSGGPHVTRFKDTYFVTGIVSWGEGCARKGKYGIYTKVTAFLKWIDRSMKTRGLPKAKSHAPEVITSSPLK
Chymotrypsin, from human pancreas, sequence (P17538 19-263): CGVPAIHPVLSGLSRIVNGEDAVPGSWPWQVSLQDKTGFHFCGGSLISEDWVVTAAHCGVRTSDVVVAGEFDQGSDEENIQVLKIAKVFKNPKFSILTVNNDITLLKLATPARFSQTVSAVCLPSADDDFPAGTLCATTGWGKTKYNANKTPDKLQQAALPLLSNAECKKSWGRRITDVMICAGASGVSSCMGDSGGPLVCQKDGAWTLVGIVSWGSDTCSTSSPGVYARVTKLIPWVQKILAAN

B2: Example 4 (peptide)
peptide: FCTKSDPPICS
HELM: PEPTIDE1{F.C.T.K.S.D.P.P.I.C.S.[dP].P}$PEPTIDE1,PEPTIDE1,2:R3-10:R3|PEPTIDE1,PEPTIDE1,1:R1-13:R2$$$V2.0
SMILES: CC[C@H](C)[C@@H]1NC(=O)[C@@H]2CCCN2C(=O)[C@@H]2CCCN2C(=O)[C@H](CC(=O)O)NC(=O)[C@H](CO)NC(=O)[C@H](CCCCN)NC(=O)[C@H]([C@@H](C)O)NC(=O)[C@@H]2CSSC[C@H](NC1=O)C(=O)N[C@@H](CO)C(=O)N1CCC[C@@H]1C(=O)N1CCC[C@H]1C(=O)N[C@@H](Cc1ccccc1)C(=O)N2
% inhibition at 100 µM [1]: 1.8%
IC50 [2]: > 100000 nmol
% inhibition at 100 µM [3]: 2.4%
% inhibition at 100 µM [4]: 5.4%
IC50 [5]: 91 nmol
% inhibition at 100 µM [6]: 0%
% inhibition at 100 µM [7]: 96%
% inhibition at 100 µM [8]: 0%
% inhibition at 100 µM (Chymase, from human skin): 0%

B5: Example 40 (peptide)
peptide: XCTKSDPPICY
HELM: PEPTIDE1{[O=C([C@@H](N[*:1])C1CCCCC1)[*:2]].C.T.K.S.D.P.P.I.C.Y.[dP].P}$PEPTIDE1,PEPTIDE1,2:R3-10:R3|PEPTIDE1,PEPTIDE1,1:R1-13:R2$$$V2.0
SMILES: CC[C@H](C)[C@@H]1NC(=O)[C@@H]2CCCN2C(=O)[C@@H]2CCCN2C(=O)[C@H](CC(=O)O)NC(=O)[C@H](CO)NC(=O)[C@H](CCCCN)NC(=O)[C@H]([C@@H](C)O)NC(=O)[C@@H]2CSSC[C@H](NC1=O)C(=O)N[C@@H](Cc1ccc(O)cc1)C(=O)N1CCC[C@@H]1C(=O)N1CCC[C@H]1C(=O)N[C@@H](C1CCCCC1)C(=O)N2
% inhibition at 100 µM [1]: 19%
IC50 [2]: > 44900 nmol
% inhibition at 100 µM [3]: 3%
% inhibition at 100 µM [4]: 10%
IC50 [5]: 25 nmol
% inhibition at 100 µM [6]: 1%
% inhibition at 100 µM [7]: 94%
% inhibition at 100 µM [8]: 33%
% inhibition at 100 µM (Chymase, from human skin): 8%

B6: Example 44 (peptide)
peptide: XCTKSDPPICY
HELM: PEPTIDE1{[Nle].C.T.K.S.D.P.P.I.C.Y.[dP].P}$PEPTIDE1,PEPTIDE1,2:R3-10:R3|PEPTIDE1,PEPTIDE1,1:R1-13:R2$$$V2.0
SMILES: CCCC[C@@H]1NC(=O)[C@@H]2CCCN2C(=O)[C@H]2CCCN2C(=O)[C@H](Cc2ccc(O)cc2)NC(=O)[C@@H]2CSSC[C@H](NC1=O)C(=O)N[C@@H]([C@@H](C)O)C(=O)N[C@@H](CCCCN)C(=O)N[C@@H](CO)C(=O)N[C@@H](CC(=O)O)C(=O)N1CCC[C@H]1C(=O)N1CCC[C@H]1C(=O)N[C@@H]([C@@H](C)CC)C(=O)N2
% inhibition at 100 µM [1]: 24%
IC50 [2]: > 10000 nmol
% inhibition at 100 µM [3]: 9%
% inhibition at 100 µM [4]: 14%
IC50 [5]: 31 nmol
% inhibition at 100 µM [6]: 9%
% inhibition at 100 µM [7]: 100%
% inhibition at 100 µM [8]: 50%
% inhibition at 100 µM (Chymase, from human skin): 3%

B7: Example 5 (peptide)
peptide: FCTKSDPPICY
HELM: PEPTIDE1{F.C.T.K.S.D.P.P.I.C.Y.[dP].P}$PEPTIDE1,PEPTIDE1,2:R3-10:R3|PEPTIDE1,PEPTIDE1,1:R1-13:R2$$$V2.0
SMILES: CC[C@H](C)[C@@H]1NC(=O)[C@@H]2CCCN2C(=O)[C@@H]2CCCN2C(=O)[C@H](CC(=O)O)NC(=O)[C@H](CO)NC(=O)[C@H](CCCCN)NC(=O)[C@H]([C@@H](C)O)NC(=O)[C@@H]2CSSC[C@H](NC1=O)C(=O)N[C@@H](Cc1ccc(O)cc1)C(=O)N1CCC[C@@H]1C(=O)N1CCC[C@H]1C(=O)N[C@@H](Cc1ccccc1)C(=O)N2
% inhibition at 100 µM [1]: 3%
IC50 [2]: > 100000 nmol
% inhibition at 100 µM [3]: 0.2%
% inhibition at 100 µM [4]: 5.7%
IC50 [5]: 56 nmol
% inhibition at 100 µM [6]: 0.5%
% inhibition at 100 µM [7]: 92%
% inhibition at 100 µM [8]: 74%
% inhibition at 100 µM (Chymase, from human skin): 0%

B8: Example 46 (peptide)
peptide: FCTKSDPPICS
HELM: PEPTIDE1{F.C.T.K.S.D.P.P.I.C.S.[dD].P}$PEPTIDE1,PEPTIDE1,2:R3-10:R3|PEPTIDE1,PEPTIDE1,1:R1-13:R2$$$V2.0
SMILES: CC[C@H](C)[C@@H]1NC(=O)[C@@H]2CCCN2C(=O)[C@@H]2CCCN2C(=O)[C@H](CC(=O)O)NC(=O)[C@H](CO)NC(=O)[C@H](CCCCN)NC(=O)[C@H]([C@@H](C)O)NC(=O)[C@@H]2CSSC[C@H](NC1=O)C(=O)N[C@@H](CO)C(=O)N[C@H](CC(=O)O)C(=O)N1CCC[C@H]1C(=O)N[C@@H](Cc1ccccc1)C(=O)N2
% inhibition at 100 µM [1]: 0%
IC50 [2]: > 100000 nmol
% inhibition at 100 µM [3]: 12.2%
% inhibition at 100 µM [4]: 5.8%
IC50 [5]: 87.5 nmol
% inhibition at 100 µM [6]: 6.9%
% inhibition at 100 µM [7]: 95%
% inhibition at 100 µM [8]: 44.1%
% inhibition at 100 µM (Chymase, from human skin): 10.2%

Continued, values first:

% inhibition at 100 µM [1]: 11%
IC50 [2]: > 100000 nmol
% inhibition at 100 µM [3]: 0%
% inhibition at 100 µM [4]: 0%
IC50 [5]: 41 nmol
% inhibition at 100 µM [6]: 1%
% inhibition at 100 µM [7]: 96%
% inhibition at 100 µM [8]: 50%
% inhibition at 100 µM (Chymase, from human skin): 7%
B1: Example 63 (peptide)
peptide: XCTKSDPPXCY
HELM: PEPTIDE1{[O=C([C@@H](N[*:1])C1CCCCC1)[*:2]].C.T.K.S.D.P.P.[Nle].C.Y.[dP].P}$PEPTIDE1,PEPTIDE1,2:R3-10:R3|PEPTIDE1,PEPTIDE1,1:R1-13:R2$$$V2.0
SMILES: CCCC[C@@H]1NC(=O)[C@@H]2CCCN2C(=O)[C@@H]2CCCN2C(=O)[C@H](CC(=O)O)NC(=O)[C@H](CO)NC(=O)[C@H](CCCCN)NC(=O)[C@H]([C@@H](C)O)NC(=O)[C@@H]2CSSC[C@H](NC1=O)C(=O)N[C@@H](Cc1ccc(O)cc1)C(=O)N1CCC[C@@H]1C(=O)N1CCC[C@H]1C(=O)N[C@@H](C1CCCCC1)C(=O)N2

% inhibition at 100 µM [1]: 4.3%
IC50 [2]: > 100000 nmol
% inhibition at 100 µM [3]: 8.6%
% inhibition at 100 µM [4]: 4.6%
IC50 [5]: 59 nmol
% inhibition at 100 µM [6]: 5.4%
% inhibition at 100 µM [7]: 84.2%
% inhibition at 100 µM [8]: 21.3%
% inhibition at 100 µM (Chymase, from human skin): 0%
B3: Example 68 (peptide)
peptide: FCTKSDPPICS
HELM: PEPTIDE1{F.C.T.K.S.D.P.P.I.C.S.[dA].D}$PEPTIDE1,PEPTIDE1,2:R3-10:R3|PEPTIDE1,PEPTIDE1,1:R1-13:R2$$$V2.0
SMILES: CC[C@H](C)[C@@H]1NC(=O)[C@@H]2CCCN2C(=O)[C@@H]2CCCN2C(=O)[C@H](CC(=O)O)NC(=O)[C@H](CO)NC(=O)[C@H](CCCCN)NC(=O)[C@H]([C@@H](C)O)NC(=O)[C@@H]2CSSC[C@H](NC1=O)C(=O)N[C@@H](CO)C(=O)N[C@H](C)C(=O)N[C@@H](CC(=O)O)C(=O)N[C@@H](Cc1ccccc1)C(=O)N2

% inhibition at 100 µM [1]: 1%
IC50 [2]: > 10000 nmol
% inhibition at 100 µM [3]: 9.3%
% inhibition at 100 µM [4]: 6.3%
IC50 [5]: 64 nmol
% inhibition at 100 µM [6]: 0%
% inhibition at 100 µM [7]: 87%
% inhibition at 100 µM [8]: 0%
% inhibition at 100 µM (Chymase, from human skin): 8.2%
B4: Example 47 (peptide)
peptide: FCTKSDPPICS
HELM: PEPTIDE1{F.C.T.K.S.D.P.P.I.C.S.[dP].D}$PEPTIDE1,PEPTIDE1,2:R3-10:R3|PEPTIDE1,PEPTIDE1,1:R1-13:R2$$$V2.0
SMILES: CC[C@H](C)[C@@H]1NC(=O)[C@@H]2CCCN2C(=O)[C@@H]2CCCN2C(=O)[C@H](CC(=O)O)NC(=O)[C@H](CO)NC(=O)[C@H](CCCCN)NC(=O)[C@H]([C@@H](C)O)NC(=O)[C@@H]2CSSC[C@H](NC1=O)C(=O)N[C@@H](CO)C(=O)N1CCC[C@@H]1C(=O)N[C@@H](CC(=O)O)C(=O)N[C@@H](Cc1ccccc1)C(=O)N2

% inhibition at 100 µM [1]: 0%
IC50 [2]: > 100000 nmol
% inhibition at 100 µM [3]: 0%
% inhibition at 100 µM [4]: 3%
IC50 [5]: 45 nmol
% inhibition at 100 µM [6]: 2.3%
% inhibition at 100 µM [7]: 87%
% inhibition at 100 µM [8]: 0%
% inhibition at 100 µM (Chymase, from human skin): 0%
B9: Example 64 (peptide)
peptide: FCTKSDPPICS
HELM: PEPTIDE1{F.C.T.K.S.D.P.P.I.C.S.[dP].E}$PEPTIDE1,PEPTIDE1,2:R3-10:R3|PEPTIDE1,PEPTIDE1,1:R1-13:R2$$$V2.0
SMILES: CC[C@H](C)[C@@H]1NC(=O)[C@@H]2CCCN2C(=O)[C@@H]2CCCN2C(=O)[C@H](CC(=O)O)NC(=O)[C@H](CO)NC(=O)[C@H](CCCCN)NC(=O)[C@H]([C@@H](C)O)NC(=O)[C@@H]2CSSC[C@H](NC1=O)C(=O)N[C@@H](CO)C(=O)N1CCC[C@@H]1C(=O)N[C@@H](CCC(=O)O)C(=O)N[C@@H](Cc1ccccc1)C(=O)N2
